B1: Antibody H (bispecific antibody, human IgG1, kappa)
light: QVQLQESGPGLVKPSETLSLTCTVSGSSLTSYGVHWVRQPPGKCLEGLGVIWPGGSTNYNSALMSRVTISKDNSKSQVSLKMSSLTAADTAVYYCARVTGTWYFDVWGQGTTVTVSSGGGGSGGGGSGGGGSDIQMTQSPSSLSASLGDRVTISCSASQGISNYLNWYQQKPDGTVKLLIYYTSTLHSGVPSRFSGSGSGTDYTLTISSLQPEDIATYYCQQYSKLPWTFGCGTKLEIKGGGGSGGGGSGGGGSDIVMTQSPATLSVSPGERATLSCKASQNVGSNVDWYQQKPGQSPRVLIYKASIRYTGIPARFSGSGSGTEFTLTISILQSEDFAVYFCMQSKSYPITFGQGTKLEIKRTVAAPSVFIFPPSDEQLKSGTASVVCLLNNFYPREAKVQWKVDNALQSGNSQESVTEQDSKDSTYSLSSTLTLSKADYEKHKVYACEVTHQGLSSPVTKSFNRGEC
heavy: not shown
notes: IgG1 subtype; full-length TNFR2 antibody with 4-1BB scFv at the N-terminus of the light chains
B2: Antibody E1 (bispecific antibody, human IgG1, kappa)
light: DIVMTQSPATLSVSPGERATLSCKASQNVGSNVDWYQQKPGQSPRVLIYKASIRYTGIPARFSGSGSGTEFTLTISILQSEDFAVYFCMQSKSYPITFGQGTKLEIKRTVAAPSVFIFPPSDEQLKSGTASVVCLLNNFYPREAKVQWKVDNALQSGNSQESVTEQDSKDSTYSLSSTLTLSKADYEKHKVYACEVTHQGLSSPVTKSFNRGEC
heavy: not shown
notes: IgG1 subtype; full-length TNFR2 antibody with 4-1BB scFv at the C-terminus of the heavy chains
B3: Antibody J1 (bispecific antibody, human IgG1, kappa)
light: DIQMTQSPSSLSASLGDRVTISCSASQGISNYLNWYQQKPDGTVKLLIYYTSTLHSGVPSRFSGSGSGTDYTLTISSLQPEDIATYYCQQYSKLPWTFGGGTKLEIKRTVAAPSVFIFPPSDEQLKSGTASVVCLLNNFYPREAKVQWKVDNALQSGNSQESVTEQDSKDSTYSLSSTLTLSKADYEKHKVYACEVTHQGLSSPVTKSFNRGEC
heavy: not shown
notes: IgG1 subtype; full-length 4-1BB antibody with TNFR2 VHH at the C-terminus of the heavy chains
B4: Antibody M1 (bispecific antibody, human IgG1, kappa)
light: B3 light
heavy: not shown
notes: IgG1 subtype; full-length 4-1BB antibody with TNFR2 VHH at the N-terminus of the heavy chains

target: T1, Human 4-1BB His (human, UniProt Q07011 24-186); assay: BLI, antibody on AHC sensor, 100 nM 4-1BB His in solution
T1 construct: Bought protein; lots 198-2146F1-W6 and 2407c-214FF1-YC; also called human 4-1BB protein; 4-1BB protein; not shown: His tag
T1 sequence (Q07011 24-186 limits assumed): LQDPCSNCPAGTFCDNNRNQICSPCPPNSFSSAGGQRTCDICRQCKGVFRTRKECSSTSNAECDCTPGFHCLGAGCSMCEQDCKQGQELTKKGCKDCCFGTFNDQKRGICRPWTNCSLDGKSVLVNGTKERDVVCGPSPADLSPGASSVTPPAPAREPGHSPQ
Description: The variable region of the antibody sequence of the positive control consists of SEQ ID NO: 15 and SEQ ID NO: 19, with the addition of the constant region of human IgG1 (SEQ ID NO: 46 and SEQ ID NO: 47). The AHC sensor was soaked in 0.02% PBST (0.02% Tween 20, pH 7.4, 1× PBS) as a buffer for 600 s to remove the sucrose covering the sensor surface. The AHC sensor was equilibrated with 0.02% PBST (0.02% Tween 20, pH 7.4, 1× PBS) as a buffer for 60 s, the antibody in the sample plate was solidified for 300 s, and the secondary equilibration buffer was used for 180 s. 100 nM human 4-1BB His (manufacturer: Acro, CAT: 41B-H5258, LOT: 198-2146F1-W6) protein was bound to the antibody for 300 s and then dissociated for 600 s. After dissociation, 10 mM glycine (pH 2.0) was used as a regeneration buffer for 30 s. The sensor was regenerated with 10 mM glycine (pH 2.0).

Binder	Kd [nM]	koff [s⁻¹]	kon [M⁻¹ s⁻¹]
B1	6.42	0.00435	677000
B2	18.1	0.00546	302000
B3	12.2	0.00616	503000
B4	17.5	0.00647	369000

target: T2, Human TNFR2 mFc (human, UniProt P20333 23-257); assay: bridging ELISA: Human TNFR2 mFc coated (0.3 ug/mL), antibody titrated, then Human 4-1BB His (0.3 ug/mL), HRP anti-His detection (Example 5)
T2 construct: Bought protein; not shown: mFc
T2 sequence (looked up): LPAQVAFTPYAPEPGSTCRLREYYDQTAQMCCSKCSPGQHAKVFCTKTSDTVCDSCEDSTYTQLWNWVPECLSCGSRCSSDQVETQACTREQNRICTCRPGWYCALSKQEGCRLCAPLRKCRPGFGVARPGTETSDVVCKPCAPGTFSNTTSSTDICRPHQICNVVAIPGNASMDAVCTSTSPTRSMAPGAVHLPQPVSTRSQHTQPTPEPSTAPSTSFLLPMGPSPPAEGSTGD

Binder	EC50 (read off the curve) [nM]
B1	~0.07
B2	~0.07
B3	~0.07
B4	~0.09

target: T3, Human 4-1BB Fc (human, UniProt Q07011 24-186); assay: bridging ELISA: Human 4-1BB Fc coated (0.3 ug/mL), antibody titrated, then Human-TNFR2-His (0.3 ug/mL), HRP anti-His detection (Example 4)
T3 construct: same catalogue and lot number as Human 4-1BB His; not shown: Fc
T3 sequence (Q07011 24-186 limits assumed): as the sequence (Q07011 24-186 limits assumed) above

Binder	EC50 (read off the curve) [nM]
B1	~0.3
B2	~0.2
B3	~0.2
B4	~0.2

Reference: US20260049151A1 (SHENGHE CHINA BIOPHARMACEUTICAL, published 2026)
